Measurements: article PMC5610937 (Journal of molecular biology, 2017)

Key:
[1] = target: human Fc fusion protein of the extracellular domain of mouse ROR1 (Mus musculus (Mouse)., UniProt Q9Z139); assay: ELISA
[2] = target: human ROR2 ectopically and stably expressed on mouse pre-B cell line 63-12 (Homo sapiens (Human)., UniProt Q01974); assay: flow cytometry on cells
Fc-hROR2 protein [3] = target: T1, Fc-hROR2 protein (Homo sapiens (Human)., UniProt Q01974); assay: ELISA
[4] = target: mouse ROR2 extracellular domains displayed on HEK293F cells (Mus musculus (Mouse)., UniProt Q9Z138); assay: flow cytometry on cells
Sequence of mouse ROR2 extracellular domains displayed on HEK293F cells (Q9Z138 34-403): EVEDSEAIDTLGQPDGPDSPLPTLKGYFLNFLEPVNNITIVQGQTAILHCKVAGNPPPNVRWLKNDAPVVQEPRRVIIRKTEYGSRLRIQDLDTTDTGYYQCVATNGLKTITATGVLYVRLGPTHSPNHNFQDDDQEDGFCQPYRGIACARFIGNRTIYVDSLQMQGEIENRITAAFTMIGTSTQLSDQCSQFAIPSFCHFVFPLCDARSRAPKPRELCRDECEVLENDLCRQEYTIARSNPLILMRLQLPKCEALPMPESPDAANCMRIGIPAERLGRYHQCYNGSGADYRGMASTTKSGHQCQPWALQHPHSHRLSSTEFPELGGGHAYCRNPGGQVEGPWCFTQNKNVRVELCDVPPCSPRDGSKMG

[5] = target: human ROR1 ectopically and stably expressed on mouse pre-B cell line 63-12 (Homo sapiens (Human)., UniProt Q01973); assay: flow cytometry on cells
Fc-hROR2 protein [6] = target: T1, Fc-hROR2 protein; assay: SPR

Sequence of human Fc fusion protein of the extracellular domain of mouse ROR1 (Q9Z139 30-406): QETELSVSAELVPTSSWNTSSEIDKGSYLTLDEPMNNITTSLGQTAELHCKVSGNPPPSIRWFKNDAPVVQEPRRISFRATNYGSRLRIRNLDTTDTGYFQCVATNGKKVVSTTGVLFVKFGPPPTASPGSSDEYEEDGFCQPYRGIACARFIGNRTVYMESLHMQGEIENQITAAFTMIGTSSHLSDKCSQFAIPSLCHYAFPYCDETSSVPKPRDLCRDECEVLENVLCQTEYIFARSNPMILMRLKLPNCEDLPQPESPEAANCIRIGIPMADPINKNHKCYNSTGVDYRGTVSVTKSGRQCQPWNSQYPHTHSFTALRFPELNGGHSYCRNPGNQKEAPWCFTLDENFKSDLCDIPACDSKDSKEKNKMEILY

Row | Binder | binding result [1] | binding result [2] | binding result (Fc-hROR2 protein [3]) | binding result [4] | binding result [5] | Kd (Fc-hROR2 protein [6]) [µM]
1 | chimeric rabbit/human anti-human ROR1 Fab ERR1-306 (Fab, V domains shown) VH: QEQLKESGGGLVQPGGSLKLSCKASGFDLSNYGVSWVRQAPGKGLEWIGYIDPTFDYTYYASWVNGRFSISRENTQNTVSLQINSLTPADTATYFCARWVYGVDDYGDGNWLDLWGQGTLVTISS VL: QFVLTQSPSVSAALGASAKLTCTLSSAHKTYTIDWYQQQQGEAPRYLMELKSDGSYTKGTGVPDRFSGSSSGADRYLIIPSVQADDEADYYCGTDYSGGYVFGGGTQLTVT | binds | no binding (tested: 10 μg/mL) | no binding (tested: 100 ng Fab in 50 μL) | – | – | –
2 | chimeric rabbit/human anti-human ROR2 Fab XBR2-TOP72 (Fab, V domains shown) VH: QEQLEESGGRLVTPGTPLTLTCTVSGIDLSSNAMSWVRQAPGKGLEYVGFINGGGGVHYASWARGRFTISKTSTTVDLKITSPTTEDTATYFCARAGTTYYTSFNLWGPGTLVTISS VL: QFVLTQSPSASAALGSSAKLTCTLSSAHKTYTIAWYQQQQGEAPRLLMMLRTDGSYTKGTGVPDRFSGSSSGADRYLIISSVQADDAAGYYCGADYSGGYVFGGGTQLTVT | – | – | – | binds | no binding | 4.15
3 | chimeric rabbit/human anti-human ROR2 Fab ERR2-302 (Fab, V domains shown) VH: QKQLVESGGGLVKPGGSLTLTCTVSGFSLSSYAIGWVRQAPGNGLEWIGIINSYGSTYYASWAKSRSTITRNTNLNTVTLKMTSLTAADTATYFCARSPYGYVSAWGYHRLDLWGQGTLVTISS VL: SYELTQLPSVSVSLGQTARITCGGASIGSKVVHWYQQKPGLAPGLLIYDDDERPSGVPDRFSGSNSGDTATLTISGAQAGDEAEYYCQLWDGSDVVFGGGTQLTVT | – | – | – | binds | no binding | 0.0525
4 | chimeric rabbit/human anti-human ROR1 Fab XBR1-402 (Fab, V domains shown) VH: QEQQKESGGGLFKPTDTLTLTCTASGFDISSYYMSWVRQAPGNGLEWIGAIGISGNAYYASWAKSRSTITRNTNLNTVTLKMTSLTAADTATYFCARDHPTYGMDLWGPGTLVTVSS VL: SYELTQLPSVSVSLGQTARITCEGNNIGSKAVHWYQQKPGLAPGLLIYDDDERPSGVPDRFSGSNSGDTATLTISGAQAGDEADYYCQVWDSSAYVFGGGTQLTVT | no binding (tested: 100 ng Fab in 50 μL) | no binding (tested: 10 μg/mL) | no binding (tested: 100 ng Fab in 50 μL) | – | – | –
5 | chimeric rabbit/human anti-human ROR1 Fab ERR1-TOP22 (Fab, V domains shown) VH: QSLEESGGRLVTPGTPLTLTCTVSGFSLSSYYMSWVRQAPGKGLEWIGTISSSGSTYYASWVKGRFTISKTSTTVDLKMTSLTTEDTATYFCARDLDYDMDLWGPGTLVTVSS VL: SYELTQLPSVSVSLGQTARITCGGNSIGSKAVHWYQQKPGLAPGLLIYNDDERPSGVPDRFSGSNSGDTATLTISGAQAGDEADYYCQLWDNNAAVFGGGTQLTVT | binds | no binding (tested: 10 μg/mL) | no binding (tested: 100 ng Fab in 50 μL) | – | – | –
6 | chimeric rabbit/human anti-human ROR1 Fab ERR1-TOP4 (Fab, V domains shown) VH: QSVEESGGRLVTPGTPLTLTCTASGIDLSRYAVNWVRQAPGKGLEWIGVISGSGTTYYASWAKGRFTISKTSTTVDLKITSPTTEDTATYFCARGWATDGIFDYDDTFNLWGPGTLVTVSS VL: SYELTQLPSVSVSLGQTARITCGGDSIESKAVHWYQQKPGLAPGLLVYNDDERPSGVPDRFSGSNSGDTATLTISGAQAGDEADYYCQLWDGSAYVFGGGTQLTVT | no binding (tested: 100 ng Fab in 50 μL) | no binding (tested: 10 μg/mL) | no binding (tested: 100 ng Fab in 50 μL) | – | – | –
7 | chimeric rabbit/human anti-human ROR2 Fab XBR2-433 (Fab, V domains shown) VH: QSVKESEGGLFKPTDTLTLTCTVSGFSLSTYGVSWVRQAPGNGLEWIGAIGSSGSANYASWAKDRSTITRNTNLNTVTLKMTSLTAADTATYFCARDGYYSSGWGPYFNIWGPGTLVTISS VL: SFVLTQPASVQVNLGQTVSLTCTADTLSRSYASWYQQKPGQAPVLLIYRDTSRPSGVPDRFSGSSSGNTATLTISGAQAGDEADYYCATSGGSGSNPQYVFGGGTQLTVT | – | – | – | binds | no binding | 2.28
8 | chimeric rabbit/human anti-human ROR1 Fab ERR1-TOP43 (Fab, V domains shown) VH: QSLEESGGRLVTPGTPLTLTCTVSGFSLSSYWMSWVRQAPGKGLEWIGAIYGSGNTYYASWAKGRFTISKTSTTVDLKITSPTTEDTATYFCARDVHSTATDLWGPGTLVTISS VL: SYELTQLPSVSVSLGQTARITCGGNNIGSKAVNWYQQKPGLAPGLLIYNDDERPSGVPDRFSGSNSGDTATLTISGAQAGDEADYYCQLWDSSAGAYVFGGGTQLTVT | no binding (tested: 100 ng Fab in 50 μL) | no binding (tested: 10 μg/mL) | no binding (tested: 100 ng Fab in 50 μL) | – | – | –

The next lines start with the values.

Row | binding result [1] | binding result [2] | binding result (Fc-hROR2 protein [3]) | binding result [4] | binding result [5] | Kd (Fc-hROR2 protein [6]) [µM] | Binder
9 | no binding (tested: 100 ng Fab in 50 μL) | no binding (tested: 10 μg/mL) | no binding (tested: 100 ng Fab in 50 μL) | – | – | – | chimeric rabbit/human anti-human ROR1 Fab ERR1-TOP54 (Fab, V domains shown) VH: QSLEESGGRLVTPGTPLTLTCTASGFSLSDYYMSWVRQAPGEGLEWIGTIYGGSGNTWYATWAKGRFTISKTSTTVDLKITSPTTEDTATYFCARDFGLSTGGLWGPGTLVTISS VL: SYELTQLPSVSVSLGQTARITCGGNSIGSKAVNWYQQKPGLAPGLLIYDDDERPSGVPDRFSGSNSGDTATLTISGAQAGDEADYYCQLWDSSARAFVFGGGTQLTVT
10 | no binding (tested: 100 ng Fab in 50 μL) | no binding (tested: 10 μg/mL) | no binding (tested: 100 ng Fab in 50 μL) | – | – | – | chimeric rabbit/human anti-human ROR1 Fab ERR1-301 (Fab, V domains shown) VH: QEQLEESGGGLVTPGGSLTLTCTASGFTISTYHMSWVRQAPGKGLEWIGSIYAGSGSTYYASWVNGRFTISSNTTQNTVSLQMNSLTVADTATYFCARDHPSYGMDLWGPGTLVTVSS VL: SYELTQLPSVSVSLGQTARITCGGNSIGSKAVNWYQQKPGLAPGLLIYDDDERPSGVPDRFSASNSGDTATLTISGAQAEDEADYYCQLWDSSAVAYVFGGGTQLTVT
11 | no binding (tested: 100 ng Fab in 50 μL) | no binding (tested: 10 μg/mL) | no binding (tested: 100 ng Fab in 50 μL) | – | – | – | chimeric rabbit/human anti-human ROR1 Fab ERR1-316 (Fab, V domains shown) VH: QEQLEESGGRLVTPGTPLTLTCTASGFFLSSYYVSWVRQAPGKGLEWIGAIGTGGSAYYASWAKSRSTITRNTNLSTVTLKMTSLTAADTATYFCARDHPNYGMDLWGPGTLVTVSS VL: SYELTQLPSVSVSLGQTARITCGGNSIGSKAVNWYQQKPGLAPGLLIYDDDERPSGVPDRFSGSNSGDTATLTISGAQAGDEADYYCQLWDSSTGAYAFGGGTQLTVT
12 | no binding (tested: 100 ng Fab in 50 μL) | no binding (tested: 10 μg/mL) | no binding (tested: 100 ng Fab in 50 μL) | – | – | – | chimeric rabbit/human anti-human ROR1 Fab ERR1-403 (Fab, V domains shown) VH: QEQLKESGRGLVQPGGSLKLSCKASGFDFSGWYMTWVRQAPGKGLEWIGTIGTTKGRTYYASWVNGRFTISSNAQNTVDLQMNSLTAADRATYFCVRGSDYFDLWGPGTLVTISS VL: SYELTQLPSVSVSLGQTARITCGGNSIGSKAVNWYQQKPGLAPGLLIYDDDERPSGVPARFSGSNSGDTATLTISGAQAGDEADYYCQLWDSSAGAYVFGGGTQLTVT
13 | no binding (tested: 100 ng Fab in 50 μL) | no binding (tested: 10 μg/mL) | no binding (tested: 100 ng Fab in 50 μL) | – | – | – | chimeric rabbit/human anti-human ROR1 Fab ERR1-TOP15 (Fab, V domains shown) VH: QEQLVESGGRLVTPGGSLTLTCAASGFSPSSYWMSWVRQAPGKGLEWIGAIYVDSGSAYYASWAKSRFTISKTSSTTVDLKMTSLTTEDTAIYFCARDGWGSDVWGPGTLVTISS VL: SYELTQLPSVSVSLGQTARITCGGNSIGSKAVHWYQQKPGLAPGLLIYDDDERPSGVPDRFSGSNSGDTATLTISGAQAGDEADYYCQLWDSSAGAYVFGGGTQLTVT
14 | no binding (tested: 100 ng Fab in 50 μL) | no binding (tested: 10 μg/mL) | no binding (tested: 100 ng Fab in 50 μL) | – | – | – | chimeric rabbit/human anti-human ROR1 Fab ERR1-409 (Fab, V domains shown) VH: QEQLVESGGRLVTPGGSLTLTCTASGFSLSSYYMGWVRQAPGKGLEWIGTIYGGSGSTWYASWVKGRFTISKTSTAVDLKITSLTTEDTATYFCARSYPGWTTEPYFDIWGPGTLVTVSS VL: QFVLTQPQSVSGSLGQTVSISCNRDSGNIEDYYVHWYQQHPGKAPTTVIYNDDQRPSGVPDRFSGSIDSTSNSASLTITGLLAEDEADYYCLSSDSSAYVFGGGTQLTVT
